The supplement of paper PMC12042874
± gives the uncertainty stated by the source.

Test: amyloid nucleation score (Sup35N fusion, yeast selection) (log enrichment); library NNK3; higher = more nucleation; inactive = no reads after selection
Summary of the method: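 The nucleation score, computed with DiMSum, is the log enrichment of output over input reads, centred on the mode score of non-aggregating sequences. Sequences with under 100 input reads were dropped. Reads were generated by Illumina sequencing of plasmid inserts from psi-negative yeast with Sup35N fused to peptides of 20 random codons, induced with 100 μM copper sulfate for 24 hours and grown 7 days at 30°C on medium lacking adenine and uracil.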
With YYRGITMCT the amyloid nucleation score was “inactive”. With FSPTIGTTWDTLMF the amyloid nucleation score was “inactive”. In the case of ILVVGALDLLCGVLTEYSCQ, the amyloid nucleation score is reported as 1.1 ± 0.1. For FIVSPPSNGANVY, the amyloid nucleation score was “inactive”. NWVVFFTYMAHHE gave an amyloid nucleation score of 0.166 ± 0.26. In the case of ESRKWAAEGPSFICTCLLSL, the amyloid nucleation score is reported as “inactive”. For RSMSSGAICSMSY, the amyloid nucleation score was “inactive”. For VALWGSWRRPWDAVAFDRTG, the amyloid nucleation score was “inactive”. For RKPFENIDS, the amyloid nucleation score was “inactive”. With NVSQFISIGVVITFKMLLVW the amyloid nucleation score was -0.478 ± 0.68. With TRSWVYCSKDRSMRGMHHHC the amyloid nucleation score was “inactive”. In the case of RSTSVWRFLWMLHVFSKLLH, the amyloid nucleation score is reported as “inactive”. With QSPSSKAK the amyloid nucleation score was “inactive”. In the case of VIRVLQPFDCGCILYSCLIS, the amyloid nucleation score is reported as “inactive”. For HCVRVASWGT, the amyloid nucleation score was “inactive”. With WFYGRLLPVPVLWIIRLKKG the amyloid nucleation score was 0.01 ± 0.59. With VYQTFYAIV the amyloid nucleation score was “inactive”. For SNANKCGRMFEMKYRHNLCL, the amyloid nucleation score was “inactive”. For HGVPSLLICWRVLNRSIFMV, the amyloid nucleation score was “inactive”. For WNPFGRGWLTLPNMFHKTVI, the amyloid nucleation score was “inactive”. With CYLNQSKYAARWNCGDNKME the amyloid nucleation score was “inactive”. For IPERMRWVWEVTRAYNNYAW, the amyloid nucleation score was “inactive”. In the case of CNMSPKNFSIFSFVPNKPVG, the amyloid nucleation score is reported as “inactive”. In the case of AFKDNNDCLEHCCRRVTDLV, the amyloid nucleation score is reported as “inactive”. In the case of YISLVSWHNGWYSKLICGVV, the amyloid nucleation score is reported as “inactive”. RVQWALLSIKGHCS showed an amyloid nucleation score of 0.645 ± 0.24. With VWLSRRIVCFRLLVQLNSA the amyloid nucleation score was “inactive”. In the case of KRSSA, the amyloid nucleation score is reported as “inactive”. In the case of YQGYRFNC, the amyloid nucleation score is reported as “inactive”. In the case of MFCDLINESSHCCEATLECN, the amyloid nucleation score is reported as “inactive”. In the case of NTLKSV, the amyloid nucleation score is reported as “inactive”. LCDFSLGGYSGNCYIFKMSV gave an amyloid nucleation score of 0.739 ± 0.28. With LRLQIEKTAKNMFEYKAG the amyloid nucleation score was “inactive”. In the case of HMIKVIVLCMMRFFIKSKNS, the amyloid nucleation score is reported as “inactive”. In the case of IKKQYINSFIDSATMKGIKV, the amyloid nucleation score is reported as “inactive”. For VNYDSVLYLVFLCIYLHKNR, the amyloid nucleation score was “inactive”. In the case of HCFFDFAYLTRCSSLRSKRC, the amyloid nucleation score is reported as “inactive”. SCVPWICWNCQVPGL gave an amyloid nucleation score of 0.881 ± 0.18. For KDNPLSCLVKVNVWTKLQEG, the amyloid nucleation score was 1.16 ± 0.12. In the case of GIMVSWIVGFMLCSILRMGD, the amyloid nucleation score is reported as “inactive”. For VTFMIDFRASWALFHDRWWC, the amyloid nucleation score was “inactive”. SLWIIERCILDHQYGSFRRQ gave an amyloid nucleation score of 1.65 ± 0.1. In the case of TLPMYTRCTTFAHLSSS, the amyloid nucleation score is reported as “inactive”. In the case of YYTWVCECSYWHSVFM, the amyloid nucleation score is reported as “inactive”. With MFLWRDCNGTN the amyloid nucleation score was “inactive”. In the case of NNLNQRYYTRHLQSGNLFCS, the amyloid nucleation score is reported as “inactive”. With SWYDHWSLIQDGLKRVNGG the amyloid nucleation score was “inactive”. With TDTLCDWYLPNRRWIKDNEW the amyloid nucleation score was “inactive”. In the case of KMGTRGWLSDIAGNMVYVLC, the amyloid nucleation score is reported as “inactive”. For VFPLSAY, the amyloid nucleation score was “inactive”. With AYMYCVMTGSWVVKIRPGTR the amyloid nucleation score was “inactive”. With GSPQVSAAGQF the amyloid nucleation score was “inactive”. With SVSSLRYY the amyloid nucleation score was “inactive”. In the case of TDMMMFICE, the amyloid nucleation score is reported as “inactive”. With VKWKDVDLFGLC the amyloid nucleation score was “inactive”. With SSITRGLHVRKTSVSTLGV the amyloid nucleation score was “inactive”. In the case of CDVLYRILRYIYSGKLLFSE, the amyloid nucleation score is reported as “inactive”. For HNEHILSQ, the amyloid nucleation score was “inactive”. In the case of WYSCAKMANIHIVSVVTTST, the amyloid nucleation score is reported as “inactive”. In the case of NLCIWPVTDAHLSLMHYLTP, the amyloid nucleation score is reported as “inactive”. In the case of VFPYFELCVFLPSYFREAET, the amyloid nucleation score is reported as “inactive”. With RLTRVVIMQRFIGEVRLSAL the amyloid nucleation score was “inactive”. In the case of SSDTGRCIKVDALRCRMGSR, the amyloid nucleation score is reported as “inactive”. Substance SVLIFTMKDFLGEIFINVPT has an amyloid nucleation score of 1.89 ± 0.092. For CIRIYATFFKLRQSYNGTNG, the amyloid nucleation score was 1.03 ± 0.14. For CHASRSGIKLLLSIAAWTCI, the amyloid nucleation score was “inactive”. For IHTQAFMGMFSLHWNHVFDL, the amyloid nucleation score was “inactive”. With RFVLQ the amyloid nucleation score was “inactive”. TVIMNLYAPP gave an amyloid nucleation score of 2.51 ± 0.053. In the case of NVLLYNRKGQFSKCLCKSVD, the amyloid nucleation score is reported as “inactive”. With RSTSSENYFYWFKS the amyloid nucleation score was “inactive”. In the case of FSSNTT, the amyloid nucleation score is reported as “inactive”. For IFWSFTGT, the amyloid nucleation score was “inactive”. With RAGVKNG the amyloid nucleation score was “inactive”. With VIVTVVSPTSMRNGDTRMQI the amyloid nucleation score was “inactive”. In the case of VISIPHGSAIRTCIVITMSL, the amyloid nucleation score is reported as “inactive”. For FCRPNSWI, the amyloid nucleation score was 0.53 ± 0.38. In the case of HTSPWVELPVGISRTCDEDR, the amyloid nucleation score is reported as “inactive”. For HTCVD, the amyloid nucleation score was “inactive”. With LGGTSNLMFGYMK the amyloid nucleation score was “inactive”. With DVTYECGRS the amyloid nucleation score was “inactive”. In the case of NSCYRRHMCWCFSKAEFLTL, the amyloid nucleation score is reported as “inactive”. With FLSEIGADTTKSYWDTIPRF the amyloid nucleation score was -1.2 ± 2.5. For WRRLEGSHA, the amyloid nucleation score was “inactive”. With IFACVLHVVTW the amyloid nucleation score was “inactive”. For EDNTKLRSWGELLGVCGKLS, the amyloid nucleation score was “inactive”. With IVVNR the amyloid nucleation score was “inactive”. For VLFSFAMLFKACLACFISCV, the amyloid nucleation score was “inactive”. With EISTVLNLHVRRIAGRFVMK the amyloid nucleation score was “inactive”. With RLLLGTIYSFLKLHGDFNGR the amyloid nucleation score was “inactive”. In the case of QCRYRRSST, the amyloid nucleation score is reported as “inactive”. With VPSNLGKPHMCRRSRDYFTA the amyloid nucleation score was “inactive”. For WRFFVVRKNSTSA, the amyloid nucleation score was “inactive”. FELSNVHGSLNRAKV showed an amyloid nucleation score of -0.526 ± 0.8. With FSKFQTYVSHMVVYGIMSGN the amyloid nucleation score was “inactive”. For CMQLVMSYTVCFVDGGVLA, the amyloid nucleation score was “inactive”. In the case of FGLITYFLL, the amyloid nucleation score is reported as 1 ± 0.13. With TRWGFVCNKTHVLGDMSIGM the amyloid nucleation score was “inactive”. For GTRLRVGILIPRWDSGTFGF, the amyloid nucleation score was “inactive”. In the case of MYLGGKALIRPFPVYATAAW, the amyloid nucleation score is reported as “inactive”. For FVYWNLSAYVRILVVDGNGR, the amyloid nucleation score was “inactive”. YFCGAVEESERLRGMEGNPD gave an amyloid nucleation score of 0.84 ± 0.2. For YLDYSFREFCRMNQ, the amyloid nucleation score was “inactive”. For VGDLLCPIASLGSRRNLWCR, the amyloid nucleation score was “inactive”. With DGGRTSLLLTEKKVR the amyloid nucleation score was “inactive”. With ISWTYVRYYGHKKCCLFYHF the amyloid nucleation score was “inactive”. With VLNSIGPYVMTKR the amyloid nucleation score was 0.139 ± 0.63. In the case of RLRRSGVKWVVLKGGTRTWQ, the amyloid nucleation score is reported as “inactive”. For SKTGLDMADMIKRGDCGEST, the amyloid nucleation score was “inactive”. In the case of IYSSCPFNLTSRMVGF, the amyloid nucleation score is reported as “inactive”. For GPIINVIS, the amyloid nucleation score was “inactive”. In the case of QTIRTMKRGNRISCVPAGHS, the amyloid nucleation score is reported as “inactive”. For HRINWRIHTTYISTYWKKCM, the amyloid nucleation score was “inactive”. For ILGFLCPLFSFFFSGGYFLG, the amyloid nucleation score was “inactive”. With GCSWLFSSLCFLGDNALGST the amyloid nucleation score was “inactive”. For NQCIAYYGISRLWQM, the amyloid nucleation score was “inactive”. In the case of VSGQKVSCMDE, the amyloid nucleation score is reported as “inactive”. For NLRFVTREWCKTYQLI, the amyloid nucleation score was “inactive”. Substance NCRSFCC has an amyloid nucleation score of 0.905 ± 0.094. For GVWKEHVTRAAVVSWKEGVN, the amyloid nucleation score was “inactive”. For THRSRKSDPNRQSFIKCGHS, the amyloid nucleation score was “inactive”. For TNTNLMYGSGYLLLNGMQCN, the amyloid nucleation score was “inactive”. For IGFAGSVM, the amyloid nucleation score was “inactive”. With FVFCLEGTGGVFDFGFGIGI the amyloid nucleation score was “inactive”. In the case of EKSCCCSVKI, the amyloid nucleation score is reported as “inactive”. For RRKHHVISQVPERPLSWLAT, the amyloid nucleation score was “inactive”. For FYNRPKWLFVLGPENILCDS, the amyloid nucleation score was “inactive”. With YASVEIFHWTFSGILYSWGH the amyloid nucleation score was “inactive”. With RHGLCFTIEAVPPPFIRWHW the amyloid nucleation score was -0.662 ± 1.3. For KSGTCK, the amyloid nucleation score was “inactive”. With IWPWYCKHNIFVKYHRLVER the amyloid nucleation score was “inactive”. In the case of FSPCISDCGVDESIKVLRKM, the amyloid nucleation score is reported as “inactive”. In the case of IDVLV, the amyloid nucleation score is reported as “inactive”. With AAVSGDVTM the amyloid nucleation score was “inactive”. For IFSYLEEECDPRWRGPLKPL, the amyloid nucleation score was “inactive”. With GYNVVKLCFIIILFVVEESS the amyloid nucleation score was “inactive”. In the case of DLVFWTINWSPGAHGTTSSG, the amyloid nucleation score is reported as “inactive”. With LSGPMRYELCMRLGSGLNYE the amyloid nucleation score was “inactive”. In the case of VLMSYQVCV, the amyloid nucleation score is reported as “inactive”. In the case of DGFYYSALLMFLV, the amyloid nucleation score is reported as “inactive”. For GFGQATTCLSLNSACF, the amyloid nucleation score was 0.544 ± 0.18. For DSFRHEGRVWLWYSSTTKRF, the amyloid nucleation score was “inactive”. With SLDLALNMFFFLYAGSNFFF the amyloid nucleation score was “inactive”. In the case of DLSRTSAVSVRKRVCVFSLH, the amyloid nucleation score is reported as “inactive”. With CFYEGYWREITNMAFLILRP the amyloid nucleation score was “inactive”. For ARHSCA, the amyloid nucleation score was “inactive”. RVRCDWCFGRGVCMTAIRQD gave an amyloid nucleation score of -0.147 ± 1.1. For YHGCPERVWLSA, the amyloid nucleation score was “inactive”. With IRCMSLYLHNGGVYRS the amyloid nucleation score was 1.72 ± 0.069. In the case of SYRLSYLYPSTHHYLLNCLL, the amyloid nucleation score is reported as “inactive”. In the case of SCHSSSGGWEVSGNYRRGKL, the amyloid nucleation score is reported as “inactive”. With WKALFSSTSCYTGVG the amyloid nucleation score was “inactive”. In the case of REFPRGWLLGLLCFRLYLLE, the amyloid nucleation score is reported as “inactive”. For SRRFTLPGGSMFTEVLM, the amyloid nucleation score was “inactive”. In the case of HKLAKTNRSSIIVCGNRVLL, the amyloid nucleation score is reported as 0.916 ± 0.11. With GRSGYH the amyloid nucleation score was “inactive”. With TCRHPIPASLARSAAAVLVW the amyloid nucleation score was “inactive”. In the case of CMMSWIDSNFRGSEMLTH, the amyloid nucleation score is reported as “inactive”. For SSWPN, the amyloid nucleation score was “inactive”.
